Test results reported in the nanobody polyreactivity screen of Harvey et al. (2022).

Test: yeast display, Sf9 membrane polyspecificity reagent, FACS + sequencing; frameworks hold sequencing errors
How it was run: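 A synthetic nanobody library was expressed on Saccharomyces cerevisiae BJ5465 by galactose induction for 36–48 hours. The library was stained for 1 hour at 4 °C with 10% biotinylated, detergent-solubilized Sf9 membrane reagent and enriched with streptavidin microbeads before FACS. Low and high (top ~1%) gates were set on anti-HA fluorescence for expression and streptavidin fluorescence for reagent binding, and each polyreactivity label reflects the gate of origin.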
In the case of “QVHLVESGGGLVQAGGSLRLTCAASGGIFHINAMGWYRQAPGKERELVAAITRTTITYADSVKGRFTISRDNAKYTVYLQMNRLKLEDSAVYYCAARDKRTPSGVEITGYDYWGQGSQVTVSS”, the “polyreactivity (PSR sort gate)” value is reported as “low polyreactivity”. For “QVHLVESGGGLVQAGGSLRLTCAASGSIFAYYTMGWYRQEPGKERELVAAISRTGTSTFYADSVKGRFTISRDNAKNTVDLQMNSLKPEDTSVYYCIAVAPGKYNHWGQGTQVTVSS”, the “polyreactivity (PSR sort gate)” value was “high polyreactivity”. With “QVHLVESGGGLVQAGGSLRLTCAASGSIFPYNAMGWYRQSPGEFVAAISYSSGSTYYADSVQGRFTISRDNAKYTVYLQMNCVIPDVTAVYYCAAGSWYPPSYVWLGRYDYWGQGTQVTVSS” the “polyreactivity (PSR sort gate)” value was “low polyreactivity”. With “QVHLVESGGGLVQAGGSLRLTSAASGRIFGRNAMGWYRQAPGKEREFVAAISRSGASRYYADSVKGRFTISRDNAKNTVYLQMNRLKPEDTAVYYCARTTRQSSAYTYSDEYDYWGQGTQVTVSS” the “polyreactivity (PSR sort gate)” value was “high polyreactivity”. With “QVHLVESGGGLVQAGRSLRLICAASGSTFDYYAMGWYRQAPGKERELVAGIDSAGSTNYADSVKGRFTISRDNAKNTVYLQMNSLKTGRYRGLYCNVGKTITTYAFPTFDYWRQGTQVTVSS” the “polyreactivity (PSR sort gate)” value was “low polyreactivity”. With “QVHLVESGGGLVQAGRSLRLSCAASGITFVKYAMGCYIQAPGKEMELVATISNSGGSTYYSDSVKGRFTISRDNAKNSVYLQMNSLKPEETAVYYCNALYLVYCDDSSPSLVSEYGYWGQGTQVTVSS” the “polyreactivity (PSR sort gate)” value was “low polyreactivity”. With “QVHLVESGGGLVQAGVSLRLSCAASGFTFYRNAMGWYRQAPGKERELVAAISSRGGSTYYADSVKGRFTISRYNANNTVYFQMNSLKPEDTAVYYCAAYGNYNEYDYWGPGTQVTVSS” the “polyreactivity (PSR sort gate)” value was “high polyreactivity”. With “QVHLVESGGGLVQAGVSLRLSCAASGSIFRINGMGWYRQAPGKERELVAAITRSGGSTFYADSVKGRFTISRDTAKNTVYLQMNSLKPEETAVYYCAAVWYYSTVPARYEYWGQGTQVTVSS” the “polyreactivity (PSR sort gate)” value was “low polyreactivity”. In the case of “QVHLVESGGGLVQEGGSLLLSCAASGSIFQIYTMGRYRQAPGKERELVAAISSSVSTNYADSVKGRFTISRDNAKNTVYLQMHTLKPEDTAVYYCNRDDYNTADRDASGYWGQGTQVTVSS”, the “polyreactivity (PSR sort gate)” value is reported as “low polyreactivity”. With “QVHLVESGGGLVQPGGSLRLSCAASGNTFQSYARGWYRQAPRKEREFVAAIRQSGGSTYYAESLKGRFTISRDNSKYSVYLLMKRLKPEDTAVYYCGTGRSRVYNGRGDYWGQGTQVNVSS” the “polyreactivity (PSR sort gate)” value was “high polyreactivity”. For “QVHLVESGGRLVLAGGSLRLSCAASRRIFDLNAMRGYIQAPGKERELFAAITNTGSTNYADSVKGRFTISRDNAKNTVYLQMNSLKPEDTAVYYCARTYWLRYFGYRDDEYDYWGQGTQVTVSS”, the “polyreactivity (PSR sort gate)” value was “low polyreactivity”. In the case of “QVHLVESGGRLVQAGGSLRLRCAASGRTFIANVMGLYRQAPRKETELVAAISTRGGSTYYADSVKGRFTISRDYAKYTVYLHMNRLKPEDTAVDYCAAYYPAQRGFNSWGQGTQVTVSS”, the “polyreactivity (PSR sort gate)” value is reported as “high polyreactivity”. In the case of “QVHLVESGGVLVQAGGSLRLSCAASGRIFSYYAMGWYRQAPGKEREMVAAISWTVGSTYYADSVKGRFTISRDNAINTVYLQMNSLYPEDTAVFYCAAAYGWSWYRYDYWGQGTQVTVSS”, the “polyreactivity (PSR sort gate)” value is reported as “high polyreactivity”. For “QVHLVESGVGLVKAGGTLRLSCAASGGIFIRNAMGWYRQAPGKERELVATISNAGSTYADAVKGRFTISRDNAKNPVHLQMHSLKPEDTAVYYCNRDDWTYPVYQGLQEYDYWGQGTQVSVSS”, the “polyreactivity (PSR sort gate)” value was “low polyreactivity”. In the case of “QVHLVESGVGLVQAGGSLRLSCAASGYTFPAYAMGRYRQAPVKERELVAGISSGGRTYYAYSVKGRFTISRDNAKNTVYLQMNSLKPEDTAVYYCAAFRFYWQSPERYYYWGQGTQVSVSS”, the “polyreactivity (PSR sort gate)” value is reported as “high polyreactivity”. For “QVHLVESGVGLVQAGGSRRLSCAASGVIFTGYAMGRYRHAPGKDRELVAAISSSGTSTYYADSVKGRFTISRDNAKYTVYLQINSLKPEDTAVYYCARVSKRTWSGYYFLGQGTQVTVSS”, the “polyreactivity (PSR sort gate)” value was “high polyreactivity”. In the case of “QVHLVESRGVLVQAGGSLRLSCAASGRTFPSYTMGWYRQAPGKERELVAAITWTGGSTYYADSVKGRFTISRDNAKNTVYFQMNSLKPDDTAVYYCADYDYWGQGTQVTVSS”, the “polyreactivity (PSR sort gate)” value is reported as “low polyreactivity”. With “QVHLVESVGGLVQAGGSLRLSCAASGFILAVYVLGWYRQAPGKDRELVAAISWSGGSTYYADSVKGRFTISRDNAKNTVYLQMNSLKPEATAVYYCNTVAKSPVKYDYWGQGTQVTVSS” the “polyreactivity (PSR sort gate)” value was “high polyreactivity”. In the case of “QVHLVESVGGLVQAGGSLRLSCAASGFIYKPYAMGWYRQAPGKERELVAAITVNGCTTYYADSVKARFTISRDNAKNTVYLQMNSLKPEDTAVYYCNRGSPGGPSWYHYDYWGQGTQVTVSS”, the “polyreactivity (PSR sort gate)” value is reported as “high polyreactivity”. In the case of “QVHLVESVGGLVQAGGSLRLSCAGSGRIFYLNSMGWYRQATGKDRELVAGITNSTTGTYYADSVKGRFKISRDNAKNTVYLQMNSLKAEETAVYYCNTDVAYEEPVETYDYWGQGTQVTVSS”, the “polyreactivity (PSR sort gate)” value is reported as “low polyreactivity”. For “QVHLVETGGGLDQAGGSLRLSCAASGYTFKTNDMRAYSPPPGKDREFVAAISAIGASTYYADSVKGRFTISRDTAKNTVYLQMKSLKPEDTAVYYCATGPYPLWYVWTDGYDHWGQGTQVPVSS”, the “polyreactivity (PSR sort gate)” value was “low polyreactivity”. In the case of “QVHLVGSGGCLVQAGGSLRLSCAASGITFYYYVMGWYRQSPGKERELVAAINSGGSTNYADSVKGRFTISRDNAKNTVYLQMNSLKPEDTAVYYCNAYTVRSYRFDYWGQGTQVTVSS”, the “polyreactivity (PSR sort gate)” value is reported as “high polyreactivity”. In the case of “QVHLVVSGGGLVQAGGSLRLMCAASGSTFKYYVMGWYRQAPGKERELVAAISGSGGSKYYADSVKGRFTISRDNAKNTVYLQMNSLIPEDTAVYYCAAGRLRGPGYYFTFDYWGQGTQVTVSS”, the “polyreactivity (PSR sort gate)” value is reported as “high polyreactivity”. With “QVHPVESGGGLVQAGGSIRLSCAASGRIFRRYTMGWYRQAPGHERELVAAITRGGGSTSYADSVKGRFTISRDNAKNTVYLQMNSLKPEDTAVYYCAAQARTSTIRGYDYWGQGTQVTVSS” the “polyreactivity (PSR sort gate)” value was “high polyreactivity”. For “QVHRVVSGGGLVQAGGSLRLSCSAYGFTFYLYAMGWYRQAPGKERELVAAISSGTSTYYADSVKGRFTISRDNAKNTVYLQMNSLKPEDTAVYYCDAATNWGGEYWGHGTQVTVSS”, the “polyreactivity (PSR sort gate)” value was “high polyreactivity”. With “QVKIVESVGGLVQSGGSLRLSCAASGRTFHRNARGLYREAPGTEREWVATITTNGGATDYADTVTGRFTSSRDNAKNTFYFHMHSQIPEDTAVYYCSAPFNPRVRPLGSVRMYYWGQGTQVTVSS” the “polyreactivity (PSR sort gate)” value was “low polyreactivity”. With “QVKLEESGGGLVQAGGSLRLTCAASGSTFKYNAMGWYRQAPGKERELVAAISSGGSTNYADSVKGRFTISRDNAMNTVYLQMISLKPEDTAVYYCNADYTYVTAWYYYWGQGTQVTVSS” the “polyreactivity (PSR sort gate)” value was “high polyreactivity”. With “QVKLLESGGGLLQAGGSLRLSCAASGLTFYPYAMAWYRQAPGKERELVATITWSGTTTYYADSVKGRFTISRDNAKNTVYVQMNSLKPEDTAVYYCAADLWEVVTPYVTIDDDYWGQGTQVTVSS” the “polyreactivity (PSR sort gate)” value was “high polyreactivity”. For “QVKLLESVGGLVQAGGSLRLSCMASGSILGDRMSWYRQPPGKEHELVATIYDGGITYYADSMKGRFTISRDNAKNTVYLQMNSLRPEDTAVYYCGASLEGYRYHVYCGQGTQVTVSS”, the “polyreactivity (PSR sort gate)” value was “low polyreactivity”. With “QVKLQESGGGLVQAGGSLRLSCAASGYISHADEMGWYRQAPGKEHELVASISNGGSTNYADSVKGRFTISRDNAKNTVYLQMNSLKWEDTAVYYWAAWTGQVDIHYYWGQGTQVTVSS” the “polyreactivity (PSR sort gate)” value was “low polyreactivity”. For “QVKLVDSGGGLVQAGGSLRLSCAASGRTFWNYAMGWYRQAPGKERELVAVIRFSDGSTYYADSVKGRFTISRDNAKNTVYLQMNSLKPEDTAVYYCAAKGPRRWGSGFDYWGQGTQVTVSS”, the “polyreactivity (PSR sort gate)” value was “low polyreactivity”. For “QVKLVDSGGGLVQAGGSLRLTCAASGITFDKYAMGWYRQAPGKERELVAAITKSSGSTYYADSVKGRFTISRVNAKNTDYLQMNSLKAEDTAVYYCAAGIVYCEYFWGQGTQVTVSS”, the “polyreactivity (PSR sort gate)” value was “high polyreactivity”. For “QVKLVDTGGGLVKAGGSLLLSCAASGSPFVWYGMGWYRQSHGKEREFDAAISTSGGRTYYADSVKGRFTISRDNAKNTVYLQMNSLKPEDTAVYYCARQPRLYFKGKLYGYWGQGTQVTVSS”, the “polyreactivity (PSR sort gate)” value was “high polyreactivity”. For “QVKLVESAAGLVQAGGSLRLSCDASGFTFALYANGLYIQAPRKERELVAVITYCGGRTYYADSVKGRFTISRVNAKNTVYLLMYSLKPEDTAVYYCNARYRQKGLYGTAFDYWGQGTQVTVSS”, the “polyreactivity (PSR sort gate)” value was “high polyreactivity”. In the case of “QVKLVESAGGLVQAGGSLRLSCSASAFIFGFNAMGWYRQEPGKERELVAAITWRGGRTSNADSVKGRFTISRDNAKNTVYLQMNSLKPEDTAVYYCAARRGTIVTRSRGYNYWGQGTQVTVSS”, the “polyreactivity (PSR sort gate)” value is reported as “high polyreactivity”. In the case of “QVKLVESGGCLVKAGGSLRLSCAATGRIFLYYAMGWYRQAPGKEMELVATITSGGRTNYADSVKGRFTISRDNAKNTVYLQMNSLKPVDTAVYNCARQSYGSYRRYGFSALYGYLGQGTQVTVSS”, the “polyreactivity (PSR sort gate)” value is reported as “high polyreactivity”. With “QVKLVESGGGLDQAGGSLRLSCAASGTIFRKNAMGWYRQAPGKERELVAAMTGTGRTTYADSVKGRFTISRDNAKNTFYLQMNSLKPEDTAVYYCAADVNYYQHRLYYWGQGTQVTVSS” the “polyreactivity (PSR sort gate)” value was “low polyreactivity”. With “QVKLVESGGGLFQAGGSLRLSCAASGITFTFNAMGWYRQAPGKERELVAAITWSGGSTFYADSVKGRFTISRDNAKNTVYLQMNSLKPEDTAVYYCARDTELYVRWLDYWGQGTQVTVSS” the “polyreactivity (PSR sort gate)” value was “low polyreactivity”. With “QVKLVESGGGLVKAGASLRLSCAASGSTLQHYAMGWYRQAPGKERELVAAINRSGDRTYYADSVKGRFTISRDNAKTTVYLQMNSLKPEDTPVDYCAAYDDYRAPVRYEYWGQGTQVTVSS” the “polyreactivity (PSR sort gate)” value was “high polyreactivity”. With “QVKLVESGGGLVQAGCSLRLTCAASGSTSDMKAMGWYRQAPGKERELVAAISYSGGSTYYADSVKGRFTMSRDNAKNTVYLQMNSLKPEDTAVYYCAKQVADRYDYWGQGTEVTVSS” the “polyreactivity (PSR sort gate)” value was “low polyreactivity”. In the case of “QVKLVESGGGLVQAGGRLRLSCAASGSIFTYYAMGWYRQAPGKERELVAAISYGGGSTYYADSVKGRFTISRDNAKYTVYLQMNSLKPEDTAVYDCNGVLGVNYGYWGQGTQVTVSS”, the “polyreactivity (PSR sort gate)” value is reported as “high polyreactivity”. With “QVKLVESGGGLVQAGGSLRLICAASGRISQSNAMGRYRQAPGKERELVAAISWRGGSTYYADSVMGRFTISRDNAKNTVYLQMNSLKPEDTAVYYSAVRGKYDRHYYWGQGTQVTVSS” the “polyreactivity (PSR sort gate)” value was “high polyreactivity”. In the case of “QVKLVESGGGLVQAGGSLRLRCAASGIIFDYYAMGWYRQAPGKERELVAAISKRGGSTYYADSVKGRFTISRDNAKNTVYLQMNSLKPEDTAVYYCAAVYAREAKRYDYWGQGTQVTVSS”, the “polyreactivity (PSR sort gate)” value is reported as “high polyreactivity”.
